# Laboratory results published in PMC9867979, “Pab1 acetylation at K131 decreases stress granule formation in Saccharomyces cerevisiae”.
# Target: Pab1 RRM1-RRM2 (Saccharomyces cerevisiae, UniProt P04147 38-203)
# Test: EMSA; protein titration up to 5000 nM; EMSA: 1x binding buffer (from 5x: 50 mM Tris-HCl pH 7.5, 750 mM KCl, 0.5 mM EDTA, 0.5 mM DTT) = 10 mM Tris-HCl, 150 mM KCl, 0.1 mM EDTA, 0.1 mM DTT, plus protein buffer (20 mM Tris-HCl pH 7.4, 100 mM KOAc, 2 mM MgOAc, 10% glycerol); 20 ul, 30 C, 30 min; 10% native PAGE, 0.4x TBE, 4 C
# Conditions: protein: recombinant; tags: GST (pGEX-4T-1), removed with thrombin; label: Cy5 at both ends (as named); single strand
# Sequence of Pab1 RRM1-RRM2 (P04147 38-203): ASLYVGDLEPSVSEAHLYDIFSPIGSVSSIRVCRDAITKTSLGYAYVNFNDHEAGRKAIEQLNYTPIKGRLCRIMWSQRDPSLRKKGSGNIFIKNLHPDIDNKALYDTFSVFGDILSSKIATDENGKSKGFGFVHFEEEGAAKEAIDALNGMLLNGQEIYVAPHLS
binder,measurement,value
AAAAAAAAAAAAAAAAAAAA (ssRNA) [Cy5-Poly(A)20-Cy5],binding result,binds
